Measured values: article PMC6735628

Key:
vitronectin (human) = experiment: ELISA; vitronectin (250 ng/well) coated, 5 uM recombinant protein plus increasing heparin, 2 h at 37 C; HRP anti-His MAbs
[1] = biological target: complement component C7 (human) (UniProt P10643); experiment: ELISA; dose-response: 1 ug host component or BSA coated, increasing recombinant protein (0-20 uM); HRP anti-His MAb; KD by non-linear regression in GraphPad Prism 6
[2] = biological target: complement component C8 (human) (UniProt P07357); experiment: as above
[3] = biological target: complement component C9 (human) (UniProt P02748); experiment: as above
plasminogen (human) = experiment: ELISA; time course: 1 ug PLG coated, 1 ug recombinant protein for 5, 15, 30, 60 and 120 min; anti-His MAbs; percent of the 120 min value
E-cadherin = E-cadherin (UniProt P12830); experiment: ELISA; dose-response: 1 ug host component or BSA coated, increasing recombinant protein (0-20 uM); HRP anti-His MAb; KD by non-linear regression in GraphPad Prism 6
[4] = biological target: recombinant protein LIC11711 (L. interrogans serovar Copenhageni (strain M20 genomic DNA)); experiment: non-reducing SDS-PAGE with western blot; purified recombinant proteins, non-reducing against reducing treatment (beta-mercaptoethanol and heating at 96 C); probed with anti-His MAbs or polyclonal antisera
[5] = biological target: native LIC11711 (L. interrogans serovar Copenhageni (endogenous in strain M20)); experiment: western blot of cell extracts; L. interrogans M20 cells treated with proteinase K for 0, 1 and 3 h, extracts blotted and probed with antiserum against rLIC11711

Chain of UniProt P02748 (P02748 22-559): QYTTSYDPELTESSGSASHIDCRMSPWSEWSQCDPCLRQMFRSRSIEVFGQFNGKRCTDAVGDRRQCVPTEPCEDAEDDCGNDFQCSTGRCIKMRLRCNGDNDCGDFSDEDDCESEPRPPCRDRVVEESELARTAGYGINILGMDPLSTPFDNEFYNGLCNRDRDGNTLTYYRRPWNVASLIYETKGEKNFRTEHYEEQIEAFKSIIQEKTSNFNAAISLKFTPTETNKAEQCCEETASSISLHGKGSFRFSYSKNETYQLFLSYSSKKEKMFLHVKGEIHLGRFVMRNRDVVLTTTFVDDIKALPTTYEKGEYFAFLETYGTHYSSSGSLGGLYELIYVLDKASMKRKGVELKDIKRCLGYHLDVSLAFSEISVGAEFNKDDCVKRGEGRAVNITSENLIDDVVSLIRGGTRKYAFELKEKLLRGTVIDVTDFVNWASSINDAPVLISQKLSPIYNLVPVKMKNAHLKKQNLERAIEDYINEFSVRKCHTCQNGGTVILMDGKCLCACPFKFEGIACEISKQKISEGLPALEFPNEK
Chain of UniProt P10643 (P10643 23-843): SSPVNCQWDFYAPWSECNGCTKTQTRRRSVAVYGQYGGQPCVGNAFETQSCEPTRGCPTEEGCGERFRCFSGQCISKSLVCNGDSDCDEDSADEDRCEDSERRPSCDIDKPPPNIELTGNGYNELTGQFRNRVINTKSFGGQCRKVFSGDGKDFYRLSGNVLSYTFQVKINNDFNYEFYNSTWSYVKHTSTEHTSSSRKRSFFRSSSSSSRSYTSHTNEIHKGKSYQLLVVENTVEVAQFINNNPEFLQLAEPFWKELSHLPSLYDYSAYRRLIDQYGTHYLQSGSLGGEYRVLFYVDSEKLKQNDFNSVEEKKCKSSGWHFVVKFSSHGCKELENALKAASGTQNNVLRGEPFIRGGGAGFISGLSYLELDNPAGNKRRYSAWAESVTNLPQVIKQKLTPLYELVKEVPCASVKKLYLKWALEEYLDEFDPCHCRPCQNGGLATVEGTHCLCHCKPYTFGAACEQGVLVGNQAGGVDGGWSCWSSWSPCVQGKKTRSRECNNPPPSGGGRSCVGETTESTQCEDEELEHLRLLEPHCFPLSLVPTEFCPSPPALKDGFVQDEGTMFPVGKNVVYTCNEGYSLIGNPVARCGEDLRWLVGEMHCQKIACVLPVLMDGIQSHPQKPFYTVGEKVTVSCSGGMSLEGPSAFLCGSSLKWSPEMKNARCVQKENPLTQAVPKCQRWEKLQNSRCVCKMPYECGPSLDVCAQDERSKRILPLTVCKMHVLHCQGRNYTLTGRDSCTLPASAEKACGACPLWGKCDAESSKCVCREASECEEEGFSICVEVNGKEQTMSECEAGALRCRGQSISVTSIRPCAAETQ
Chain of UniProt P07357 (P07357 31-584, chain 1 of 3): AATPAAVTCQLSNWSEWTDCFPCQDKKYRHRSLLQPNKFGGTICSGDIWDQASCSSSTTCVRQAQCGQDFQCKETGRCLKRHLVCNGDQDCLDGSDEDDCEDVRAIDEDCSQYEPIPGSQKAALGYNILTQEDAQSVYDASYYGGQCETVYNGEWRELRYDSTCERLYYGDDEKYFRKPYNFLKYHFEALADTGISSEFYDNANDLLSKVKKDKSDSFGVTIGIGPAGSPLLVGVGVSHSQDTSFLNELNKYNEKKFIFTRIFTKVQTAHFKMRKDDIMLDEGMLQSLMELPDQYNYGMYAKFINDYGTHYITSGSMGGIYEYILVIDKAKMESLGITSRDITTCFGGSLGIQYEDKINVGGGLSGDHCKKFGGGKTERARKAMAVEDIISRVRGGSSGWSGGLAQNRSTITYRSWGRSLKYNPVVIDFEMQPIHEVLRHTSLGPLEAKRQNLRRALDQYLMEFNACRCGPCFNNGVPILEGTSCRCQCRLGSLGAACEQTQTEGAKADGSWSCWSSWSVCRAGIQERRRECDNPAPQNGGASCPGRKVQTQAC
Chain of UniProt P07357 (P07358 55-591, chain 2 of 3, further chain): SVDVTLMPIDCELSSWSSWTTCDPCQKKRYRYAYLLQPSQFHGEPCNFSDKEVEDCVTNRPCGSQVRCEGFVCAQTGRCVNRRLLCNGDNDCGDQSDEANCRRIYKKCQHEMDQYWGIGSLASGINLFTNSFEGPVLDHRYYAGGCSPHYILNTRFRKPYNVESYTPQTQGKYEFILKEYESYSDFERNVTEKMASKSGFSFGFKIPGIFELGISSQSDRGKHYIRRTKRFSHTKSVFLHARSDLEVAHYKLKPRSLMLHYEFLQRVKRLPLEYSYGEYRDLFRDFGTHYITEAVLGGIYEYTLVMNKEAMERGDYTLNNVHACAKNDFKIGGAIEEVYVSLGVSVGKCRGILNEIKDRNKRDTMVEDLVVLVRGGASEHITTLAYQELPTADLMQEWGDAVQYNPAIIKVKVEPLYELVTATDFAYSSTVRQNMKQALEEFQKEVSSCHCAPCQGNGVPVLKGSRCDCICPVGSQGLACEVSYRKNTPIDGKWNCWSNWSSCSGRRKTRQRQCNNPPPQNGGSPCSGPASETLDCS
Chain of UniProt P07357 (P07360 21-202, chain 3 of 3, further chain): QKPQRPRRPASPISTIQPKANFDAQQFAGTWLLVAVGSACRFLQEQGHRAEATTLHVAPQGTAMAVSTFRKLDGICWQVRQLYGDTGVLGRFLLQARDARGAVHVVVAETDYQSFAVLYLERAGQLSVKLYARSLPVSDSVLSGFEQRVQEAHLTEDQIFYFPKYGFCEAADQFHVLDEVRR

Substance | percent reduction of binding with 10 ug/well heparin (vitronectin (human)) [%] | percent reduction of binding with 100 ug/well heparin (vitronectin (human)) [%] | Kd [1] [µM] | Kd [2] [µM] | Kd [3] [µM] | percent of the maximal binding (2 h) reached at 5 min (plasminogen (human)) [%] | Kd (E-cadherin) [µM] | stoichiometry N [4] | stoichiometry N [5]
recombinant protein LIC12587 (natural protein) | 10 | 51 | 1.95 | 0.47 | 0.63 | – | – | – | –
recombinant protein LIC11711 (natural protein) | 40 | 54 | – | – | – | 40 | 3.82 | 2 | –
native LIC11711 (natural protein) | – | – | – | – | – | – | – | – | 2
